The nature of the data set: soluble on expression in E. coli; label from the status in PepcDB or PDB records.
For the sequence “MTTRKPFIICDFDGTITMNDNIINIMKTFAPPEWMALKDGVLSKTLSIKEGVGRMFGLLPSSLKEEITSFVLEDAKIREGFREFVAFINEHEIPFYVISGGMDFFVYPLLEGIVEKDRIYCNHASFDNDYIHIDWPHSCKGTCSNQCGCCKPSVIHELSEPNQYIIMIGDSVTDVEAAKLSDLCFARDYLLNECREQNLNHLPYQDFYEIRKEIENVKEVQEWLQNKNAGESSLKLEHHHHHH”, the “soluble on expression in E. coli” value is listed as “soluble”.
Regarding “AGSNGAQEKKYIVGFKQTMSTMSAAKKKDVISEKGGKVQKQFKYVDAASATLNEKAVKELKKDPSVAYVEEDHVAHAY”, the “soluble on expression in E. coli” value was “soluble”.
Consider “MPRRHSIVYAVEYDGDIYAITGITHETRNYLYKYIVKEDKWIELYMYFNHVGKTFVCSCGDYILIIADAKYEYYPKSNTWNLFDMSTRNIEYYDMFTKDETPKCN”, for which the “soluble on expression in E. coli” value was “not soluble”.
For “SEDKKKKRSPKPCLTQQAQAPGTLRRVPVPTSHSGSLALGLPHLPSPKQRAKFKRAGKEKCRPVLAGGGGGSAGTPLQHSFLTEVTDVYEMEGGLLNLLNDFHSGRLQAFGKECSFEQLEHVREMQEKLARLHFSLDVCGEEEDEEEEEDGVTEGLPEEQKKTMADRNLDQLLSNLEDLSNSIQKLHLAENAEPEDQPAA” the value was “soluble”.
The result for “SADESDMRNELNDIQARADQLGDESLESTRRMLQLVEESKDAGIRTLVMLDEQGEQLERIEEGMDQINKDMKEAEKNLTDLGNLCGLCPCPCNKLKGGGQSWGNNQDGVVSSQPARVVDEREQMAISGGFIRRVTNDARENEMDENLEQVGSIIGNLRHMALDMGNEIDTQNRQIDRIMDMADSNKTRIDEANQRATKMLGSG” reads “soluble”; that for “MAQFVYTMHRVGKVVPPKRHILKNISLSFFPGAKIGVLGLNGAGKSTLLRIMAGIDKDIEGEARPQPDIKIGYLPQEPQLNPEHTVRESIEEAVSEVVNALKRLDEVYALYADPDADFDKLAAEQGRLEEIIQAHDGHNLNVQLERAADALRLPDWDAKIANLSGGERRRVALCRLLLEKPDMLLLDEPTNHLDAESVAWLERFLHDFEGTVVAITHDRYFLDNVAGWILELDRGEGIPWEGNYSSWLEQKDQRLAQEASQEAARRKSIEKELEWVRQGTKGRQSKGKARLARFEELNSTEYQKRNETNELFIPPGPRLGDKVLEVSNLRKSYGDRLLIDDLSFSIPKGAIVGIIGPNGAGKSTLFRMISGQEQPDSGTITLGETVKLASVDQFRDSMDNSKTVWEEVSGGLDIMKIGNTEMPSRAYVGRFNFKGVDQGKRVGELSGGERGRLHLAKLLQVGGNMLLLDEPTNDLDIETLRALENALLEFPGCAMVISHDRWFLDRIATHILDYQDEGKVEFFEGNFTEYEEYKKRTLGADALEPKRIKYKRIAK”, “soluble”; that for “MVKERRTELVEGFRHSVPYINAHRGKTFVIMLGGEAIEHENFSNIVNDIGLLHSLGIRLVVVYGARPQIDANLAEHHHEPVYHKQTRVTDAKTLELVKQAAGMLQLEITARLSMSLNNTPLQGAHINVVSGNFIIAQPLGVDDGVDYCHSGRIRRIDEEAIHRQLDSGAIVLMGPVAVSVTGESFNLTSEEIATQLAIKLKAEKMIGFCSSQGVYNQAGEIVSELFPNEAQARVEELEADEDYNSGTVRFLRGAVKACRSGVRRCHLISYQENGALLQELFSRDGIGTQIVMESAEQIRRATINDIGGILELISPLEQQGILVRRSREQLEMEIDKFTIIQRDNTTIACAALYPFPEEKIGEMACVAVHPDYRSSSRGEVLLERIAAQARQMGLSKLFVLTTRSIHWFQERGFTPVDIDLLPESKKQMYNYQRRSKVLMADLA”, “not soluble”.
The result for “MILTITYTQPPATDLGYLLHKNPSRPQTFELNHGKAHIFYPEATSERCTVALLLDIDPIDLARGKKGSSGEGGLFDYVNDRPYVSSSFMSVAISRVFGTAMSGKCKEKPELAAIKLPLKAKIMMLPCKGGEEIIYRLFEPLGYKVDVEGYMLDEKFPEWGKSRYYTVSLEGEVRVRDLLNHIYVLIPVLDSEKHYWVGEDEIDKLFQHGEGWLVDHPEKELITGRYLIRKKRLVNQALKRLLEASDVVDDENEDDEPLKNEETEKKLNLNQQRLGTVVAVLKSVNAKKVIDLGCGEGNLLSLLLKDKSFEQITGVDVSYSVLERAKDRLKIDRLPEMQRKRISLFQSSLVYRDKRFSGYDAATVIEVIEHLDENRLQAFEKVLFEFTRPQTVIVSTPNKEYNFHYQNLFEGNLRHRDHRFEWTRKEFETWAVKVAEKYGYSVRFLQIGEIDDEFGSPTQMGVFTL” reads “not soluble”; that for “MMNQDIEKVLISEEQIQEKVLELGAIIAEDYKNTVPLAIGVLKGAMPFMADLLKRTDTYLEMDFMAVSSYGHSTVSTGEVKILKDLDTSVEGRDILIVEDIIDSGLTLSYLVDLFKYRKAKSVKIVTLLDKPTGRKVDLKADYVGFTVPHEFVVGYGLDYKEQYRNLPYVGVLKPSVYSN”, “not soluble”.
With “MPLDPICKKIISRDTEYFSDYGGKNYYFCSSECKHKFDALEKSVIRLKRNLSEKEKISFGKLKRDIIKPGICTLCGACAASCEYITIKDEKPELIGPCKACGVCYYQCPRTITTEEGLIGSFRYAYAAQSAIPEIKGQDGGVVTSLLLYALDEGLIDCAVVTVHSEEEPWKPVPIVAKTREEILKSSGSIYSHSMTLEALMSAVKQGMNSVAFVGTSCNIDAVTKMQKSSYGFLHLFMRAKVLKLGLFCMDTFAYEGIKAVLESYGITLDNVDAMKIRKGKFEVALKDGKEHIFELSEFDEYRSSSCRFCTDLTAENSDISFGGVGSPRGYTTVLARSAIGYEIFNEAIDNGYIEARQLTDDELEKVLNLAKMKKVQMYDLHRRQKTLEHHHHHH”, the “soluble on expression in E. coli” value is listed as “not soluble”.
The result for “MKEEKLVTLAIHSYEKAQILKSLLETEGIEAYLHNVNQIQPVISAGVRVRIKETDLPRALSIIEDNKWDQEDPKKRAKNTEEYVLIPVDFSEYTMKICELGFNFAARRGLRVVLMHVYISPFFSTPLTVGDTAVFQLSNEVSLRKEYQRVQR” reads “not soluble”; that for “MTNVCDLTDRKCKPCEGGVPPLEMEEAEKLLKQLEQGWQLADNKISRTFSFKNYYQTMAFVNAIAWVSHREDHHPDMMVGYDWCRVEYMTHAIGGLSENDFICAAKVDMLFKS”, “not soluble”; that for “MGSDKIHHHHHHMAALENKIDFAIAFAVNNANPNGDPLNGNRPRTTSEGLGEVSDVALKRKIRNRLQDAGESVFVQSDDRSDDGAKSLSDRFNTYLKTLPKDEQKQKNVVFGKVCERWLDVRSFGQVFAFKKAKDTDEVSIGVRGPVSIQPAFSINPIAIDDVQITKSVNSETTDSGKKSSDTMGMKYRVSGRAVYVTYGSISPQLAERTGFSAEDAEKIKEALVTLFENDESSARPSGSMEVLDVVWFAHNCKGGQYSSAKVHRSVSVDADGTVNVDDASIPGLRYEVIEGR”, “not soluble”.
Turning to “MRGSHHHHHHGSACELVREMEGVDYLADERKKAGFDVDEMKIVWAGSRHDFELTDRISKLVASDPGFSKEGRTMLPRKELFKNTLRKAAYAWKRIIELRLSQEEATMLRRYVDEPAFTDLHWGMFIPAIKGQGTDKQQEKWLPLAYKMQIIGCYAQTELGHGSNVQGLETTATFDPQTDEFVIHSPTLTSSKWWPGGLGKVSTHAVVYARLITDGKDYGVNGFIVQLRSLEDHKPLPGVTVGDIGMKFGNGAYNSMDNGVLSFDHVRIPRDQMLMRVSQVTKEGKYVQSDIPRQLLYGTMVYVRQSIVADASLAMSRAVCIATRYSAVRRQFGSQNGGQETQVIDYKTQQNRLFPLLASAYAFRFVGEWLKWLYTDVTQRLAANDFSTLPEAHACTAGLKSLTTSATADGIEECRKLCGGHGYLCSSGLPELFAVYVPACTYEGDNVVLQLQVARFLMKTISQLGTGKKPVGTVSYMGRIEHLMQCRSDVKQAEDWLKPSAVLEAFEARSARMSVACAKNLSKFENQEEGFAELAADLVEAAVAHCQLIVVSKYIEKLQQNIPGKGVKQQLEVLCGIYSLFILHKHQGDFLGTGYITSKQGSLANDQLRALYSQLRPNAVSLVDAFNYTDHYLGSILGRYDGNVYPKLYEAAWKDPLNKSDIADGFHEYIRPLLKQQLRTAKL”, the “soluble on expression in E. coli” value is on record as “soluble”.
For “RSKTVILAKNLPAGTLAAEIQETFSRFGSLGRVLLPEGGITAIVEFLEPLEARKAFRHLAYSKFHHVPLYLEWAPIGVFGAAPQKKDSQHEQPAEKAE” the value was “soluble”; for “MNCRLGCGACCIAPSISSVIPGMPNGKAAGERCVQLSDDNLCLIFGSPERPAVCCDFEASLDVCGHSNEEALWLITNLESQTSLEHHHHHH”, “not soluble”.
For “MKKWAVWLCSLLLLLPLSACTNDGGQSEKPLKKVRLAEVTHSIFYAPQYVALAKGFFKEEGLDVELTTTWGGDKTMTTLLSGGADIALVGSETSIYVYSQGTDDPVINFAQLTQTDGTFLVSRKKIGHFTWEMLKGSTFLGQRKGGMPQMVGEFVLKKHGIDPHQDLKLIQNVDFANIANAFASGTGDFVQLFEPTASLFEQEGKGYIVASFGTESGRVPYTSYMAKRSYMNENKDVIEKFTRAIYKAQQWVESHSAAEIAKAIQPYFKDTDSAIIEKVVERYKSQGTYATDPILDEEEWNNLQTIMAEAGELPKRIDLNTLVDSSFAKNAMND” the value was “not soluble”; for “MRRIAIVGGGQAGLPLAFGLLDKGYEVTVVSNRTPDDIRRGKVMSSQCMFDPALQIERELGINGWEADCPPVEGIGFAVPHPEQAGAKAIEWSARLDRPAQSVDQRVKMPAWLEQVQARGGRLLLQDAGIAELEALAQSHDLVILAAGKGEVVKLFERDAARSPFDKPQRALALTYVHGLEPAPDYSRVAFNLIPGVGEYFVFPALTLSGPCDIMVFEGVPGGPLDCWRDVRTPQEHLAASRRFLQTYLPWEADRARNVELTDDKGILAGAFAPTVRKPVMTLPSGRLVFGLGDAVVTNDPITGQGANNATKACKVYLDAILARGEQPYTRDWMEATFEQFWDYAQWVVQWTNSLLTPPPPHILGLLGTAEQAPSLASTIANGFNHPPSYFPWWADAQACEGFIAQHQRTPATATALEHHHHHH”, “not soluble”; for “MSLTVSNNFKMIYIASCGEGINAFHLVESTLVQFPDSDITVVKVPHIRTESQVDHLLDRVKDVESLIAHTIVEPNLRQYLVTKAEEHKIVTIDLMGQVLNKIETFLSIRPLGKPGLYRETHQVDLKQVTAIDFALAHDDGLRPESLDEAEIILVGLSRAGKTPLSMYMGVMGWKVANIPYVPGVPMPQTLDEVDRRRVIALNINIEQLLSHRKMRQESLGTSDMHAYSRRQEVEVEVQTAQKYYITKGFSMIDVSNKPIETSAEEIAEMITRRFKAQAHEGHHHHHH”, “not soluble”.
For “GSSHHHHHHSSGLVPRGSHMQTTNAVDLGNPDLYTTLERHARWRELAAEDAMVWSDPGSSPSGFWSVFSHRACAAVLAPSAPLTSEYGMMIGFDRDHPDNSGGRMMVVSEHEQHRKLRKLVGPLLSRAAARKLAERVRIEVGDVLGRVLDGEVCDAATAIGPRIPAAVVCEILGVPAEDEDMLIDLTNHAFGGEDELFDGMTPRQAHTEILVYFDELITARRKEPGDDLVSTLVTDDDLTIDDVLLNCDNVLIGGNETTRHAITGAVHALATVPGLLTALRDGSADVDTVVEEVLRWTSPAMHVLRVTTADVTINGRDLPSGTPVVAWLPAANRDPAEFDDPDTFLPGRKPNRHITFGHGMHHCLGSALARIELSVVLRVLAERVSRVDLEREPAWLRAIVVQGYRELPVRFTGR” the value was “soluble”; for “STAIDGQGKDQVIFVTKEEHETPSTVKQEEEDTNEDPKGKGLILPTGEINWDCPCLGGMASGVCGEQFKSAFTCFHFSQEEVKGSDCLEQFISMQECFHQHPELFPQDNNDLQTADPDQEHSSSISDFTTNKESDSLPTETDEIPTQLPVVS”, “soluble”.

Source of the values: the DeepSol protein solubility set.
